Test results from patent publication US20110076705A1.

Biological target: 2D9-binding PAGs (immuno-affinity purified PAGs used as ELISA standards)
Test: sandwich ELISA on 2D9-coated plates with immuno-affinity purified PAG standards, log-logit transformation, SoftMax

B1: monoclonal antibody 2D9 (antibody, mouse IgG1, kappa, V domains shown)
VH: QVQLQQSGAELMKPGASVKISCKATGYIFSNYWMEWVKQRPGHGLEWIGEILPGSDITNYNEKFKDKATFTADSSSNTAYMQLSSLTSEDSAVYYCARAGSGYYGVYYYAMDYWGQGTSVTVSS
VL: DVLMTQTPLSLPVSLGDQASISCRSRQSIVHSNGNTYLEWFLQKPGQSPKLLIYKVSNRFSGVPDRFSGSGSGTDFTLKISRVEAEDLGVYYCFQGSHVPLTFGAGTKLELKR
Kd: 0.9 nM
